# Assay results from patent US20020031818A1, “Modification of Mdm2 activity” (priority 2000, published 2002).
# B1: p19^ARF: Mdm2-regulating protein; in vitro translated, bacculovirus-expressed or transfected (protein)
# chain: MGRRFLVTVRIQRAGRPLQERVFLVKFVRSRRPRTASCALAFVNMLLRLERILRRGPHRNPGPGDDDGQRSRSSSSAQLRCRFELRGPHYLLPPGARRSAGRLPGHAGGAARVRGSAGCARCLGSPAARLGPRAGTSRHRAIFAFRWVLFVFRWVVFVYRWERRPDRRA
# Experiments:
# [1] = target: Mdm2 (Homo sapiens, UniProt Q00987); assay: In vivo sumoylation of Mdm2 in p53/Mdm2 double null cells; type: cell-based; design: expressed in transfected cells; host or cells: p53/Mdm2 double null cells; details: Flag-Mdm2, HA-SUMO, p19 wt 1.5 μg each; MG132
# Description: FIGS. 10A-10D. A. Time dependent Mdm2 sumoylation in vitro. Bacterially expressed and purified GST-Mdm2 was subjected to in vitro sumoylation reaction in the presence of E1, Ubc9, and ^35S-Sumos. Reaction was terminated after 10,30,50 or 60 minutes, Proteins were separated on 8% gel, Commassie stained, dryed and exposed overnight (upper panel). Lower panel depicts Commassie blue staining of Mdm2 forms. B. A peptide corresponding to the Ubc-9 binding site on Mdm2 decreases Mdm2 in vitro sumoylation of Mdm2 in a time-dependent manner. (Upper part) The specific Ubc-9-binding site peptide or a nonspecific peptide was added to the reaction for the indicated time periods. […] The lower panel depicts a Coomassie staining visualizing relative amounts of sumoylated and non-sumoylated forms of purified GST-Mdm2. C. The Mdm2 sumoylation assay was carried out in the presence of Ubc-9-binding site peptide (mu9bs) or a nonspecific peptide ([…]) which were added to the reaction at the indicated concentrations. […] D. A peptide corresponding to the Ubc-9 binding site on Mdm2 decreases Mdm2 sumoylation in vivo. […] Immunoprecipitated Mdm2 levels were detected using 2A10 antibodies (top). […]
# FIG. 13A-13E. […] (Left) Immunoprecipitated Mdm2 was detected using monoclonal Mdm2 antibodies (2A10, left). […]
# [2] = target: T1, GST-Mdm2 (Homo sapiens, UniProt Q00987); assay: In vitro conjugation of SUMO-1 to GST-Mdm2 (in vitro sumoylation); type: biochemical
# T1 construct: made in house
# Description: A. Time dependent Mdm2 sumoylation in vitro. Bacterially expressed and purified GST-Mdm2 was subjected to in vitro sumoylation reaction in the presence of E1, Ubc9, and ^35S-Sumos. Reaction was terminated after 10,30,50 or 60 minutes, Proteins were separated on 8% gel, Commassie stained, dryed and exposed overnight (upper panel). Lower panel depicts Commassie blue staining of Mdm2 forms. […] (Upper part) The specific Ubc-9-binding site peptide or a nonspecific peptide was added to the reaction for the indicated time periods. […] The lower panel depicts a Coomassie staining visualizing relative amounts of sumoylated and non-sumoylated forms of purified GST-Mdm2. C. The Mdm2 sumoylation assay was carried out in the presence of Ubc-9-binding site peptide (mu9bs) or a nonspecific peptide (mu9bs) which were added to the reaction at the indicated concentrations. […] Mdm2/p53 double null cells were transfected with Flag-tagged Mdm2, HA-tagged Sumo-1 and increasing amounts of the specific or nonspecific Ubc-9-peptides, respectively. Cells were harvested 36 h later and 500 μg of protein was immunoprecipitated using Mdm2 antibodies (2A10). Immunoprecipitated Mdm2 levels were detected using 2A10 antibodies (top). The same membrane was stripped and reprobed using monoclonal antibodies against Sumo-1 (Zymed, middle) to visualize the level of Sumo-1 conjugation to Mdm2 after Ubc-9-peptide expression.
# A. Bacterially expressed and purified Mdm2 (1 μg) was incubated with ^32P-labeled Sumo-1, purified Aos1/Uba2 and Ubc9 (0.5 μg) for 60 min at 37° C. in conjugation buffer. For indicated time-periods in vitro translated wt or mutant p19^ARF (0.5 mg) was added to the sumoylation reactions. Upper panel depicts the amount of Sumoylated Mdm2, lower panel reveal the level of Mdm2 and Sumo-Mdm2 in Coomassie blue gel. B. Bacterially expressed and purified Mdm2 (1 μg) was incubated with in vitro-translated ^35S-Sumo, purified Aos1/Uba2 and Ubc9 (0.5 μg) for 60 min at 37° C. in conjugation buffer in the presence of the increasing amounts of bacculovirus-expressed p19^ARF (0, 0.1, 0.5, 1 μg; lanes 1-4 respectively). Bead-bound complexes were washed before being denatured in 3× Sample Buffer. Proteins were separated on 8% SDS-PAGE. Gel was stained with Coomassie blue to verify equal Mdm2 input (lower panel), dried and exposed to X-ray film, which depicts SUMO-1 conjugation to Mdm2 in the presence of the indicated p19 forms (upper panel). […] Double-null cells were transfected with Flag-tagged Mdm2 (1.5 μg), HA-tagged SUMO (1.5 μg) and p19 wt (1.5 μg). Cells were treated with MG132 (40 mM) for 5 h prior to protein preparation. […] (Left) Immunoprecipitated Mdm2 was detected using monoclonal Mdm2 antibodies (2A10, left). […]
# [3] = system: Mdm2; assay: Pulse-chase half-life of Mdm2 wt or S218A in normal human fibroblasts; type: cell-based
# Description: FIG. 16A-16F. A. Activation of p38 increases Mdm2 ubiquitination in vivo. EJ cells were transfected with indicated plasmids. 36 h after transfection cells were harvested and Mdm2 was immunoprecipitated (2A10 antibodies). […] Middle panels show expression levels of Mdm2 and p19^ARF. Lower panels depict phospho-and total p38 levels. B. Mutation at Ser218 of Mdm2 abolishes p38 induced Mdm2 ubiquitination. Normal human fibroblasts were transfected with indicated plasmids. 36 h after transfection cells were harvested and lysed. Mdm2 was immunoprecipitated and proteins were separated on a 8% SDS-PAGE. […] C. Mutation at Ser218 of Mdm2 abrogates p19^ARF-induced Mdm2 degradation. […] Upper panels depict Mdm2-Sumo conjugates (detected via Sumo-1 anitbodies), as well as the 75 kD and 90 kD forms of Mdm2 (detected via Mdm2 antibodies). […] To monitor possible changes in amount of p19 bound to Mdm2 association was monitored using normalized Mdm2 levels at the indicated time-points after UV-treatment.
# Normal human fibroblasts (NHF) were transfected with wt or S218A forms of Mdm2 expression vectors (4 μg). ^35S-methionine (1 mCi) was added to the cell cultures 24 h after transfection for 5 h (pulse) followed by chase (2 mM cold methionine) for the indicated time points. […] Immunoprecipated Mdm2 was washed, separated on 10% SDS-PAGE, and analyzed by autoradiography.
# T1 sequence (Q00987 whole entry): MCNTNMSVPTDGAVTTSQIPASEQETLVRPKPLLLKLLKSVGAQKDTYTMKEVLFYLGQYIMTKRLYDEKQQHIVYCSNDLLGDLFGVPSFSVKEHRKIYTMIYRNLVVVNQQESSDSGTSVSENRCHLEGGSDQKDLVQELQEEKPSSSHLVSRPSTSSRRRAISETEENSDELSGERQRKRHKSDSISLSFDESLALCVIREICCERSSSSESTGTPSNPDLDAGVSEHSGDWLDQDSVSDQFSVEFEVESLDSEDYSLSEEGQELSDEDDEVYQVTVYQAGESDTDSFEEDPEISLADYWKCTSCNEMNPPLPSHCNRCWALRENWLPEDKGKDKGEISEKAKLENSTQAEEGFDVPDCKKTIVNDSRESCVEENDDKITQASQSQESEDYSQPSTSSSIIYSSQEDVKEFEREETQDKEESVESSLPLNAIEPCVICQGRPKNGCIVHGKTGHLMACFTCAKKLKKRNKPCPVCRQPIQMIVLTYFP
# Mdm2 (Homo sapiens, UniProt Q00987), sequence (Q00987 whole entry): as above
molecule,measurement,setting,value
B1,Mdm2 sumoylation in Mdm2/p53-/- cells upon p19ARF co-expression,[1],reduced the degree of Mdm2 sumoylation
same,in vitro sumoylation of Mdm2 with p19ARF purified from insect cells,"[2]; 0, 0.1, 0.5, 1 μg bacculovirus-expressed p19ARF",inhibited in a dose-dependent manner
same,GST-Mdm2 sumoylation in vitro with in vitro-translated p19 forms,[2]; in vitro-translated wt or mutant p19ARF,efficient inhibition of GST-Mdm2 sumoylation in vitro
same,effect on half-life of Mdm2 S218A mutant,[3],minimal effects
